B1: POU domain, class 2, transcription factor 2, residues 200 to 269; numbered along this chain, P09086 (parent)
chain: LEELEQFARTFKQRRIKLGFTQGDVGLAMGKLYGNDFSQTTISRFEALNLSFKNMCKLKPLLEKWLNDAE

Variants of: B1
Assay: abundance fitness (aPCA) (normalised: wild type 0, dead -1); higher = more abundant; growth selection in yeast, the domain comes from the species named
Conditions: Homo sapiens

Abundance fitness of substitutions, site by site:
R44: P -0.936; Q 0.125; S 0.065; V -0.523; W -0.251; Y -0.033
F45: A -0.78; C -0.752; D -0.916; E -1.09; G -1.05; H -1.04; I -0.546; K -0.906; M -0.109; Q -0.977; R -0.965; T -0.989; V -0.371; W -0.205; Y -0.158
E46: A -0.765; C -1.06; D -0.942; F -0.996; G -0.942; H -0.944; I -0.956; K -0.431; L -0.904; N -0.973; P -0.885; Q -1.08; R -0.993; S -1.05; T -0.87; V -0.79; W -1.02; Y -0.994
A47: D 0.158; E 0.082; F -0.173; G -0.002; H -0.144; I -0.037; K -0.054; L -0.032; M -0.036; N -0.019; P -0.641; Q 0.035; R -0.085; S 0.053; T 0.017; V -0.125; W -0.325; Y -0.26
L48: A 0.053; C 0.049; D -0.27; E 0.014; F 0.056; H 0.023; I -0.029; K 0.07; M -0.031; N -0.026; P -0.472; Q -0.011; S 0.028; V 0.018; W -0.158; Y -0.329
N49: A -0.026; C 0.012; D 0.049; E 0.07; F -0.219; G -0.004; H -0.018; I -0.037; K -0.007; L -0.032; P -0.671; Q 0.053; R -0.052; S -0.005; V -0.091; W -0.309; Y -0.249
L50: A -0.103; C -0.078; D -0.089; E 0.008; F -0.064; G -0.116; H -0.089; I -0.039; K -0.658; M -0.049; N -0.53; P -0.674; R -0.625; S -0.155; T -0.054; V -0.036; W -0.183; Y -0.174
S51: A -0.117; C -0.172; D 0.06; E 0.025; F -0.832; G -0.05; H -0.049; I -0.684; K -0.019; L -0.785; M -0.317; N -0.037; P 0.006; R -0.102; T 0.007; V -0.507; W -0.907; Y -0.461
F52: A -0.038; C -0.062; E -0.044; G -0.053; H -0.2; I -0.028; K -0.031; L -0.014; M -0.105; N -0.069; P -0.115; Q -0.087; R 0.032; T 0.069; V -0.035; W -0.024; Y -0.096
K53: A 0.004; C -0.098; D -0.048; E 0.003; F -0.044; G 0.002; H 0.016; I -0.073; L -0.015; M -0.055; N -0.236; P -0.055; Q 0.028; R -0.022; S 0.005; T 0.064; V -0.014; W -0.079; Y -0.092
N54: A -0.046; C -0.193; D 0.101; E 0.058; F 0.018; G -0.017; H 0.091; I -0.272; K -0.017; L -0.097; M 0.103; P -0.264; Q 0.11; R -0.005; S 0.042; T 0.023; V 0.032; W -0.081; Y 0.09
M55: A -0.022; C -0.439; D -0.435; E -0.512; F -0.127; G -0.097; H -0.164; I -0.175; L -0.021; N -0.463; R -0.502; T -0.213; V -0.142; W -0.24; Y -0.135
C56: A -0.022; D -0.052; E 0.002; F -0.034; G -0.055; H -0.082; I -0.09; K 0.015; L 0.007; N -0.064; Q 0.062; R 0.014; S -0.029; T 0.053; V -0.029; W -0.046; Y -0.196
K57: A -0.057; C -0.058; D -0.47; E -0.05; G 0.002; I -0.153; L -0.08; M 0.01; N -0.125; P -0.44; Q -0.023; R -0.064; S -0.067; T 0.024; V -0.088; W -0.068; Y -0.089
L58: A -0.002; C -0.067; D -0.576; E -0.478; F 0.005; G -0.619; H -0.221; I 0.057; K -0.099; M -0.011; N -0.227; P -0.747; Q -0.194; R -0.259; S -0.228; T -0.049; V -0.005; W -0.007; Y -0.157
K59: A -0.086; C -0.14; E -0.293; F -0.14; G -0.079; H -0.098; I 0.001; L -0.069; N -0.435; P -0.761; Q -0.094; R -0.078; T -0.167; V -0.031; W -0.078
P60: A -0.124; C -0.177; D -0.082; E -0.109; F -0.05; G -0.016; H -0.216; I 0.098; K -0.295; L -0.156; M -0.207; N -0.177; Q -0.103; R -0.102; S -0.069; T -0.06; V -0.035; W -0.334; Y -0.378
L61: A -0.043; C 0.026; D -0.006; F 0.05; G -0.093; H -0.064; I -0.141; K 0.032; M -0.031; P -0.027; Q 0.013; R -0.038; S -0.038; T 0.008; V -0.064; Y -0.082
L62: A -0.166; C -0.096; D -0.999; E -0.974; G -0.744; I 0.014; K -0.896; M 0.025; P -0.93; Q -0.843; R -0.968; S -0.804; T -0.501; V -0.043; Y -0.076
K64: A 0.081; C -0.117; D 0.003; E -0.016; H 0.041; I -0.158; L -0.049; M -0.096; N -0.232; P -0.343; Q 0.008; R -0.054; S -0.084; V -0.048; W -0.257; Y -0.24
W65: A -0.469; C -0.243; E -0.923; G -0.71

From the Human Domainome abundance scans (Beltran et al. 2025)
